This note sets out measurements from publication PMC12419796.

This experiment deals with H1N1 A/PR/8/1934 (Cambridge strain) neuraminidase, recombinant soluble tetramer with tetrabrachion domain (Staphylothermus marinus | influenza A virus H1N1 A/PR/8/1934 (Cambridge strain)). Briefly: cross-linking.

As usually defined, the stoichiometry N is the number of molecules, sites or subunits per partner or assembly. As to “H1N1 A/PR/8/1934 (Cambridge strain) neuraminidase, recombinant soluble tetramer with tetrabrachion domain (enzyme)”, the stoichiometry N amounted to 4.
